# Laboratory results as given in patent publication US9062100B2, “Anti-human TROP-2 antibody having anti-tumor activity in vivo” (LIVTECH, INC., dated 2015).
# T1: human TROP-2 (hTROP-2) (human)
# T1 chain: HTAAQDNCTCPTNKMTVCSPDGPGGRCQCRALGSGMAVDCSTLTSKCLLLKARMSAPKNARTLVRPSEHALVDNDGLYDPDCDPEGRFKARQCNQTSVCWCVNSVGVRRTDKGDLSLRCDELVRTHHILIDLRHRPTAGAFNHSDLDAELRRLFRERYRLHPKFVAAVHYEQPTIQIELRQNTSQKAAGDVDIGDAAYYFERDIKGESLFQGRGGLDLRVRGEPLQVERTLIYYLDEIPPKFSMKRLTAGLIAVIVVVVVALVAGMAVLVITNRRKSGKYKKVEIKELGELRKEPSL
# T2: Table 11 peptide No. 1 (human, not fully specified)
# T2 peptide: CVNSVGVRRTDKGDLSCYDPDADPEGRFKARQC
# T3: Table 11 peptide No. 2 (human)
# T3 peptide: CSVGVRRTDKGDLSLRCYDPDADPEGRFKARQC
# T4: Table 11 peptide No. 3 (human)
# T4 peptide: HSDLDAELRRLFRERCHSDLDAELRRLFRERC
# T5: Table 11 peptide No. 4 (human)
# T5 peptide: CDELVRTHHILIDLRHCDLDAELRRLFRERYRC
# T6: Table 11 peptide No. 6 (human)
# T6 peptide: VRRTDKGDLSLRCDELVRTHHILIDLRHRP
# T7: Table 11 peptide No. 7 (human)
# T7 peptide: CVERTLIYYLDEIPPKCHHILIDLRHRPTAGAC
# T8: Table 11 peptide No. 8 (human)
# T8 peptide: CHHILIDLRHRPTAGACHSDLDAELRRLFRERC
# T9: Table 11 peptide No. 9 (human)
# T9 peptide: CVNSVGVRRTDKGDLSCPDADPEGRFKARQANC
# T10: Table 11 peptide No. 10 (human)
# T10 peptide: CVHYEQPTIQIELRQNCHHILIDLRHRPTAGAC
# T11: Table 11 peptide No. 11 (human)
# T11 peptide: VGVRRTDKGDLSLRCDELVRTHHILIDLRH
# T12: Table 11 peptide No. 12 (human)
# T12 peptide: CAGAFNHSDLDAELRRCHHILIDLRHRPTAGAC
# T13: Table 11 peptide No. 13 (human)
# T13 peptide: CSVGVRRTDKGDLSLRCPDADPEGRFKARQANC
# T14: Table 11 peptide No. 14 (human)
# T14 peptide: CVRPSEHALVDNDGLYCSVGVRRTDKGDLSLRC
# T15: Table 11 peptide No. 15 (human)
# T15 peptide: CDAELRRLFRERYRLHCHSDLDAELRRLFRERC
# T16: Table 11 peptide No. 17 (human)
# T16 peptide: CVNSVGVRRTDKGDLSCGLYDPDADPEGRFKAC
# T17: Table 11 peptide No. 18 (human)
# T17 peptide: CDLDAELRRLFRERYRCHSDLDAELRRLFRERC
# T18: Table 11 peptide No. 19 (human)
# T18 peptide: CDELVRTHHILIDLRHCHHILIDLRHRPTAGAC
# T19: Table 11 peptide No. 20 (human)
# T19 peptide: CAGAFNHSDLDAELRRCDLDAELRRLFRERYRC
# T20: Table 11 peptide No. 21 (human)
# T20 peptide: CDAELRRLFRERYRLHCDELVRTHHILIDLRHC
# T21: Table 11 peptide No. 22 (human)
# T21 peptide: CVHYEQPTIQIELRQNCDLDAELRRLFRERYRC
# T22: Table 11 peptide No. 23 (human)
# T22 peptide: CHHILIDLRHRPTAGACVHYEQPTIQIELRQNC
# T23: Table 11 peptide No. 25 (human)
# T23 peptide: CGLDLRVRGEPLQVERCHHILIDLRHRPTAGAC
# T24: Table 11 peptide No. 26 (human)
# T24 peptide: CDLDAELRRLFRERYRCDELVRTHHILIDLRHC
# T25: recombinant protein of the extracellular region of hTROP-2 (human)
# T25 sequence: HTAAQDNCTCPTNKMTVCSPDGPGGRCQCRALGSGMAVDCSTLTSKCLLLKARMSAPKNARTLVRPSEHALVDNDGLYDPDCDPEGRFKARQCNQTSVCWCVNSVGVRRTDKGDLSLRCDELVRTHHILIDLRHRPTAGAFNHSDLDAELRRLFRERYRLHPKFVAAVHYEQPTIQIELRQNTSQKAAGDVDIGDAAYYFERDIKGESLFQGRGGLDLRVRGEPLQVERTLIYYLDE
# B1: anti-hTROP-2 monoclonal antibody T6-16 (antibody, V domains shown)
# VH: EVQLQQSGPELVKPGASVKISCKASGYTFTDYNMHWVKQSHGKNLEWIGYIYPYNGGTGYNQRFKSRATMTVDKSSSTAYMELRSLTSDDSAVYYCAREDYGSSPSYAMDYWGQGTSVIVSS
# VL: DVVMTQTPLSLPVSLGDQASISCRSSQSLVHGNGNTYLHWYLQKPGQSPKLLIYKVSNRFSGVPDRFSGSGSGTDFTLKISRVEAEDLGVYFCSQTTHVPTFGSGTKLEIK
# Key:
# [1] = molecular target: T1, human TROP-2 (hTROP-2); test: FACS on PK-59 cells
# [2] = molecular target: T1, human TROP-2 (hTROP-2); test: FACS on BxPC-3 cells
# [3] = molecular target: T2, Table 11 peptide No. 1; test: PEPSCAN CLIPS peptide ELISA
# [4] = molecular target: T3, Table 11 peptide No. 2; test: PEPSCAN CLIPS peptide ELISA
# [5] = molecular target: T4, Table 11 peptide No. 3; test: PEPSCAN CLIPS peptide ELISA
# [6] = molecular target: T5, Table 11 peptide No. 4; test: PEPSCAN CLIPS peptide ELISA
# [7] = molecular target: T6, Table 11 peptide No. 6; test: PEPSCAN CLIPS peptide ELISA
# [8] = molecular target: T7, Table 11 peptide No. 7; test: PEPSCAN CLIPS peptide ELISA
# [9] = molecular target: T8, Table 11 peptide No. 8; test: PEPSCAN CLIPS peptide ELISA
# [10] = molecular target: T9, Table 11 peptide No. 9; test: PEPSCAN CLIPS peptide ELISA
# [11] = molecular target: T10, Table 11 peptide No. 10; test: PEPSCAN CLIPS peptide ELISA
# [12] = molecular target: T11, Table 11 peptide No. 11; test: PEPSCAN CLIPS peptide ELISA
# [13] = molecular target: T12, Table 11 peptide No. 12; test: PEPSCAN CLIPS peptide ELISA
# [14] = molecular target: T13, Table 11 peptide No. 13; test: PEPSCAN CLIPS peptide ELISA
# [15] = molecular target: T14, Table 11 peptide No. 14; test: PEPSCAN CLIPS peptide ELISA
# [16] = molecular target: T15, Table 11 peptide No. 15; test: PEPSCAN CLIPS peptide ELISA
# [17] = molecular target: Table 11 peptide No. 16 (human); test: PEPSCAN CLIPS peptide ELISA
# Sequence of Table 11 peptide No. 16 (human) (peptide, as listed by the source): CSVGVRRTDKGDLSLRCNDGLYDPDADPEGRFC
# [18] = molecular target: T16, Table 11 peptide No. 17; test: PEPSCAN CLIPS peptide ELISA
# [19] = molecular target: T17, Table 11 peptide No. 18; test: PEPSCAN CLIPS peptide ELISA
# [20] = molecular target: T18, Table 11 peptide No. 19; test: PEPSCAN CLIPS peptide ELISA
# [21] = molecular target: T19, Table 11 peptide No. 20; test: PEPSCAN CLIPS peptide ELISA
# [22] = molecular target: T20, Table 11 peptide No. 21; test: PEPSCAN CLIPS peptide ELISA
# [23] = molecular target: T21, Table 11 peptide No. 22; test: PEPSCAN CLIPS peptide ELISA
# [24] = molecular target: T22, Table 11 peptide No. 23; test: PEPSCAN CLIPS peptide ELISA
# [25] = molecular target: Table 11 peptide No. 24 (human); test: PEPSCAN CLIPS peptide ELISA
# Sequence of Table 11 peptide No. 24 (human) (peptide, as listed by the source): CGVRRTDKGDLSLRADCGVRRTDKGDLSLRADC
# [26] = molecular target: T23, Table 11 peptide No. 25; test: PEPSCAN CLIPS peptide ELISA
# [27] = molecular target: T24, Table 11 peptide No. 26; test: PEPSCAN CLIPS peptide ELISA
# [28] = molecular target: T25, recombinant protein of the extracellular region of hTROP-2 (human); test: ELISA of free antibody after equilibration with antigen in solution
binder,measurement,setting,value
B1,"mean fluorescence intensity, times that with PE-labeled anti-mouse IgG only",[1],59 times
same,"mean fluorescence intensity, times that with PE-labeled anti-mouse IgG only",[2],25 times
same,binding of T6-16,[3],1070
same,binding of T6-16,[4],786
same,binding of T6-16,[5],714
same,binding of T6-16,[6],713
same,binding of T6-16,[7],670
same,binding of T6-16,[8],626
same,binding of T6-16,[9],620
same,binding of T6-16,[10],611
same,binding of T6-16,[11],602
same,binding of T6-16,[12],601
same,binding of T6-16,[13],592
same,binding of T6-16,[14],585
same,binding of T6-16,[15],573
same,binding of T6-16,[16],566
same,binding of T6-16,[17],559
same,binding of T6-16,[18],553
same,binding of T6-16,[19],534
same,binding of T6-16,[20],534
same,binding of T6-16,[21],529
same,binding of T6-16,[22],527
same,binding of T6-16,[23],526
same,binding of T6-16,[24],524
same,binding of T6-16,[25],524
same,binding of T6-16,[26],521
same,binding of T6-16,[27],516
same,Kd,[28],4.3 pM
